Experiment: soluble on expression in E. coli; label from the status in PepcDB or PDB records

Soluble on expression in E. coli, not soluble:
MLTEIGKIIRQRRQQHGITIEQLAEQSNVSISLISRLERGKVDNIKLQSLTAIAETLNLKIADFFRDELLQSPNVVALLDYLSDLPAHQREELAGTLLKLLRLSKS, MGSDKIHHHHHHMEKLYEIYTGGAEDSFEVGKLLFEENSWQLYLTLDELGRDDSLLLIRKPAVTRLLDQSDYLAEIQRRRKMLTQKGLADPFKLEDKVTLIKSVGSFMDLLPGQVVYFGLEGEDYQQWGYIDEISAGQVNFAAYPSGKYRPFAGEVAVSQLRRLAAFSGEWLLDNPKLRDTEDTTVDGLREVHLKEDPASFAVGRLLCADDDFSLYLTVDEIGRDDSLLLVKKLAVDRVIDQSEYLQDTSRCRRQLKEKGLEDPFEVQGKAANIKQMQDFWRLAAGQVVSFVMKDEEEAEYGILKSKEGDALSFGQYPSGKYETFAGQISLVEVDRLEAFGGELTLENNNC, MNKMLYGWLLAACCGLPPAFAGDSVDVLAQPALHGPQALRAVLQDVARADARLVAVGERGVVLLSDDNGATWRQATAVPVGVSLTAVQFIDARNGWAVGHAGVVLHSQDGGEHWSVQLDGKRAAALEVQAAEAAADERRLAAAQRLLADGADKPLLALNFTDARNGLVVGAYGVAMRTDDGGRSWQSEIGRLPNGRGLHLYALARQGNQVYIAGEQGLLLRSRDGGEHYEALHGPYDGSYFAATVLPDGRLLLGGLRGSLFASDDGGDSFQALANPTPASINGLRVAGGQLLLANQAGMLLRSGLGAFAAQPVAVSDGLPLTAATTAADGSIVAVGMAGARRLEPSSLEHHHHHH, ERSIGFDGVMYFYSDTEKIRDAAFEAALQDQLEWKIEGLKPYVIPADKTLSDRICREDILRGVTIAANGFYGPQGRRLRLPLKDEDLNRKIQAFDFNGSRITNYEMESSSLAGLAALMGHEAITVCCIIAGRKSEKMNTSYQGSIEGLIDLVLERI, GYKKIPKKKLKDLMVELYVADGHFANIYDPKLTDSVREAVYTNLFAKYGTTRMDYDSTLMWYGRHDLEEYIAICQSVRDELEKQRIDLDKQITLEREKKGMDMLDGSFYELDSINMLAGDSTCFYRPEMPFLNRSFIITPGTAYKEGTRLEFVTRLRGLQLRPDATMEMFLQLVCTDNTVLTVSRPVNPGINMLTTSVPDSASVSRVYGYLRGFPDSAGIMSLSPFVIDSFSLRKF, ASEEDLAAATEKMQSMKGKKSQAAAALEAEQAKAEKRLSCLLKARTKLSFRVIRDGIKCHGGIHLKKQSEKAELDISVTNTAINNLPSDADIVITHKDLTDRAKAKLPNATHISVDNFLNSPKYDELIEKLKSNLIEREYCHASTRKGNIKLNQTVSSKEEAIKLAGQTLIDNGYVTEDYISKMFDREETSSTFMGNFIAIPHGTEEAKSEVLHSGISIIQIPEGVEYGEGNTAKVVFGIAGKNNEHLDILSNIAIICSEEETLNA, MTLVGECLSPHVTMAQRDHIRLEWRMPYRVLERTRQVAWTCFCRASVYELCEGGGQAFLRRTVQLDGKPTAHETSPCSISEARVIWTALLSGRAR, MGSDKIHHHHHHVSKILIIYSSVHGQTRKLCDFMQRELEALEHSVTCASIDNPPAMEGFDKIVLGASIRHGKHNPRVYDFIRENIKVLQEKASSFFSVSLVARKPAKNTPETNPYMQAFLAKSPWQPKLLAVFGGNLDYQGYNALDRNIIRFIMWITKGPTAPDTKVEYTDWDKVKHYAQQVDAL, MGSDKIHHHHHHMQLKPLLRQLATTFEVTVDPTFTHNPEVTHVQFVDPTEALASHRLYLSPDSSQLVQLTYSWHGHRQSVGLVNLGTGLTTIIAAQNQLLKLLMTLGQCLHHDVQIQAAINQLAIQAITADFDTTLAQAVRLLENPLAIIDLNGEILTRSHTTQLNGTSIHAAVETNRVGRWLLDHGFAPDTPDFLTQVYVAEDQLSAGPMLITPLANGTEPLGYLVMPALNKPLNDRQALLINSIGQVIAGSLVKNQIMPTAESQRDRLLNLLLTEHQGGTFADQFAEQHVQLPTAMVLIRCEPLADQAPMILQQRLQYLMMPRFKQVLVSTYQQQCVALIPISLVAYNQNQFKLTLQQITKQADCRLIVSQHYVNPEDTFAAYTVCERTAQLKTGRGRVIFCEDQFYNLALARVNHLEILPFFINPALRLLLAYDQQNHTELVPTLDVYLRATCNLTRTAKQLYVHPNTLRNRLHHITTLTGCDLRDAETCFKLAASFKLRQFLTQHQYQYRPDIPIPTQD, MGSDKIHHHHHHMQGKKFISPGAWFSMNYPSDWNEFEDGEGSFLFYNPDVWTGNFRISAFKGNASYGKDAIRQELKENDSASLVKIGTWDCAYSKEMFQEEGTYYTSHLWITGTGNIAFECSFTVPKGGSAKEAEEVIATLEARKEGEKYPAELIPVRLSEIYQINEGYEWVVSTVKQELKKDFQGVEEDLEKIQQVIDSGKISPKKKDEWLAIGITVCAILTNEVEGMEWKTLIDGNREVPVLEYQGRTIDPMKIAWSKVKAGQPCNIAEAYQSAIDHH, AVKTYGMFIGTQFDSSKFLYSAFQAESNLGIWRFAHDKRPKKQSFCRTEKSRRIAIDIVQGWLAVDYDLVGDVRIIRSVLVVSSEPIQTDYTNFTGLTGKPMELSQLLTITQSQSSAKLVCSCFRVTDKQIHDAMEKQDCTSLTQLQNKLKCGTNCGSCISQIKQMVDSHQHQKGKQQASQQSLAIQIK, MAENDGETIVPDEQCNLTASTPMKSSGLEQVESPKERKTSMVECDDEGNPSSGTPDESPKQLTPHSIPPRRRRSPRRPEVSASRLPLKVLNQIFQYLPLKDLRSAMLTCHSWNNALSMEDSDIWQYLLGKKLPEAAVSDPFLLAELGSAKKKLRAWYFAWNTSDISRNNYIRTNGFTVHRQPVAQSTDGVRGKRGISKGVHAFDITWDGPLGTVAVVGIATKHAALHCVGYVALLGSDDQSWGWNLVDNVLMHNGAQLGVYPKMNNPPKYEVGDKIRLIIDCDTHVAYFERNSEFLGIAFNHIPPLRLYPAVCAVYGNTEVTMVYVGSPQMG, MDSQKFIDLCKKHVVDFANSQLDYTDQKKISESDIYVVWLAKTLQNNKALLSTNLFDGMYYEVTFNGDKNELYFDAYKKWRNIRFDVTEGGDQNG, MNPIEIIDKFYPQDTEQRHILLIHSLSVAQKALKIVDAHPNLPINRSFVREAALLHDIGIFMTDAPTIQCFGEHPYIAHGYLGADLLRKEGFERHALVCERHTGAGLTLEEIIERQLPVPHREMVPVTLEEQIICFADKFFSKTHLDEEKTVEKARKSIAKYGEEGLNRFDGWCSLFL

Soluble on expression in E. coli, soluble:
MHHHHHHIEGRHMLRPGDCEVCISYLGRFYQDLKDRDVTFSPATIEEELIKFCREARGKENRLCYYIGATDDAATKIINEVSKPLAHHIPVEKICEKLKKKDSQICELKYDKQIDLSTVDLKKLRVKELKKILDDWGEMCKGCAEKSDYIRKINELMPKYAPKAASARTDL, MGHHHHHHSHMLLPRGLDIKQEELGDLVDKEMAATSAAIETATARIEEMLSKSRAGDTGVKLEVNERILGCCTSLMQAIQVLIVASKDLQREIVESGRGTASPKEFYAKNSRWTEGLISASKAVGWGATVMVDAADLVVQGRGKFEELMVCSHEIAASTAQLVAASKVKADKDSPNLAQLQQASRGVNQATAGVVASTISGKSQIEETDNMDFSSMTLTQI, MSLLLIVAGHDPTGAGLRADIATAEALGVPAVSLPTLLSLQDEGVELVEPVDSRFMSDCLARYVPRCEVVKVGAVPTLKTFEILAKRLRDLTVVWDPVFRAEAGGELSEATPEEALETFGETVDILTPNTEELSQLVGREVRTTVEAELAARELVEEYGLTGVLVTGGHSVDRRDVWVPAEGNTIAWEVPPGEGAHGSGCVLSTALACFLVRGLDPETAVERAVRFARAAVREARNTPFGRVADPVAQIRRDATLGKATQHVIRALEIIESDPAFARAIPQVGMNVAEVFDPSRGLEGVVGLSGRIVLDGDRPTAVGRPVPGGSKHVGTVALTAHRLDPSVRAAVNARYDEELIERARDLGFVVSSFDRSEEPEEVDSTMEWGTEVAFRRADDTPDVVYDEGDVGKEPMIRVLGKSAVEAVTKLRMLLGCVVGEGHHHHHH, MSSEKRVGMVEKSNNKRQRVNQVPVFSINDHHDVLVEILRRLDGSSLCSAACVCRLWSAVARNDSIWEELCFRQVSPRPSLSLRSVVSALGGYRCLYFLCIRPVLARLPKLLWTRDQLQLSLSLYCVHYYERLYVGAWLGDAPPSSLIFLRKPVNVV

— the DeepSol protein solubility set
